# Reference: IntAct's records for PubMed 25910212
# B1: Keratin, type II cytoskeletal 1 (Homo sapiens), P04264 (parent)
# chain: MSRQFSSRSGYRSGGGFSSGSAGIINYQRRTTSSSTRRSGGGGGRFSSCGGGGGSFGAGGGFGSRSLVNLGGSKSISISVARGGGRGSGFGGGYGGGGFGGGGFGGGGFGGGGIGGGGFGGFGSGGGGFGGGGFGGGGYGGGYGPVCPPGGIQEVTINQSLLQPLNVEIDPEIQKVKSREREQIKSLNNQFASFIDKVRFLEQQNQVLQTKWELLQQVDTSTRTHNLEPYFESFINNLRRRVDQLKSDQSRLDSELKNMQDMVEDYRNKYEDEINKRTNAENEFVTIKKDVDGAYMTKVDLQAKLDNLQQEIDFLTALYQAELSQMQTQISETNVILSMDNNRSLDLDSIIAEVKAQYEDIAQKSKAEAESLYQSKYEELQITAGRHGDSVRNSKIEISELNRVIQRLRSEIDNVKKQISNLQQSISDAEQRGENALKDAKNKLNDLEDALQQAKEDLARLLRDYQELMNTKLALDLEIATYRTLLEGEESRMSGECAPNVSVSVSTSHTTISGGGSRGGGGGGYGSGGSSYGSGGGSYGSGGGGGGGRGSYGSGGSSYGSGGGSYGSGGGGGGHGSYGSGSSSGGYRGGSGGGGGGSSGGRGSGGGSSGGSIGGRGSSSGGVKSSGGSSSVKFVSTTYSGVTR
# B2: Adenosylhomocysteinase (Homo sapiens), P23526 (parent)
# chain: MSDKLPYKVADIGLAAWGRKALDIAENEMPGLMRMRERYSASKPLKGARIAGCLHMTVETAVLIETLVTLGAEVQWSSCNIFSTQDHAAAAIAKAGIPVYAWKGETDEEYLWCIEQTLYFKDGPLNMILDDGGDLTNLIHTKYPQLLPGIRGISEETTTGVHNLYKMMANGILKVPAINVNDSVTKSKFDNLYGCRESLIDGIKRATDVMIAGKVAVVAGYGDVGKGCAQALRGFGARVIITEIDPINALQAAMEGYEVTTMDEACQEGNIFVTTTGCIDIILGRHFEQMKDDAIVCNIGHFDVEIDVKWLNENAVEKVNIKPQVDRYRLKNGRRIILLAEGRLVNLGCAMGHPSFVMSNSFTNQVMAQIELWTHPDKYPVGVHFLPKKLDEAVAEAHLGKLNVKLTKLTEKQAQYLGMSCDGPFKPDHYRY
# B3: Cyclin-dependent kinase 4 inhibitor C (Homo sapiens), P42773 (parent)
# chain: MAEPWGNELASAAARGDLEQLTSLLQNNVNVNAQNGFGRTALQVMKLGNPEIARRLLLRGANPDLKDRTGFAVIHDAARAGFLDTLQTLLEFQADVNIEDNEGNLPLHLAAKEGHLRVVEFLVKHTASNVGHRNHKGDTACDLARLYGRNEVVSLMQANGAGGATNLQ
# B4: Keratin, type II cytoskeletal 6A (Homo sapiens), P02538 (parent)
# chain: MASTSTTIRSHSSSRRGFSANSARLPGVSRSGFSSVSVSRSRGSGGLGGACGGAGFGSRSLYGLGGSKRISIGGGSCAISGGYGSRAGGSYGFGGAGSGFGFGGGAGIGFGLGGGAGLAGGFGGPGFPVCPPGGIQEVTVNQSLLTPLNLQIDPTIQRVRAEEREQIKTLNNKFASFIDKVRFLEQQNKVLETKWTLLQEQGTKTVRQNLEPLFEQYINNLRRQLDSIVGERGRLDSELRGMQDLVEDFKNKYEDEINKRTAAENEFVTLKKDVDAAYMNKVELQAKADTLTDEINFLRALYDAELSQMQTHISDTSVVLSMDNNRNLDLDSIIAEVKAQYEEIAQRSRAEAESWYQTKYEELQVTAGRHGDDLRNTKQEIAEINRMIQRLRSEIDHVKKQCANLQAAIADAEQRGEMALKDAKNKLEGLEDALQKAKQDLARLLKEYQELMNVKLALDVEIATYRKLLEGEECRLNGEGVGQVNISVVQSTVSSGYGGASGVGSGLGLGGGSSYSYGSGLGVGGGFSSSSGRAIGGGLSSVGGGSSTIKYTTTSSSSRKSYKH
# B5: Cyclin-dependent kinase 4 (Homo sapiens), P11802 (parent)
# chain: MATSRYEPVAEIGVGAYGTVYKARDPHSGHFVALKSVRVPNGGGGGGGLPISTVREVALLRRLEAFEHPNVVRLMDVCATSRTDREIKVTLVFEHVDQDLRTYLDKAPPPGLPAETIKDLMRQFLRGLDFLHANCIVHRDLKPENILVTSGGTVKLADFGLARIYSYQMALTPVVVTLWYRAPEVLLQSTYATPVDMWSVGCIFAEMFRRKPLFCGNSEADQLGKIFDLIGLPPEDDWPRDVSLPRGAFPPRGPRPVQSVVPEMEESGAQLLLEMLTFNPHKRISAFRALQHSYLHKDEGNPE
# Variants of: B1
# Details: with nup62_human NUP62, P37198
row,effect of a mutation on the interaction,Variant
1,causing an interaction,L161P

# Variants of: B1
# Details: with KRT15, P19012
# Target sequence in this assay (P19012 whole entry): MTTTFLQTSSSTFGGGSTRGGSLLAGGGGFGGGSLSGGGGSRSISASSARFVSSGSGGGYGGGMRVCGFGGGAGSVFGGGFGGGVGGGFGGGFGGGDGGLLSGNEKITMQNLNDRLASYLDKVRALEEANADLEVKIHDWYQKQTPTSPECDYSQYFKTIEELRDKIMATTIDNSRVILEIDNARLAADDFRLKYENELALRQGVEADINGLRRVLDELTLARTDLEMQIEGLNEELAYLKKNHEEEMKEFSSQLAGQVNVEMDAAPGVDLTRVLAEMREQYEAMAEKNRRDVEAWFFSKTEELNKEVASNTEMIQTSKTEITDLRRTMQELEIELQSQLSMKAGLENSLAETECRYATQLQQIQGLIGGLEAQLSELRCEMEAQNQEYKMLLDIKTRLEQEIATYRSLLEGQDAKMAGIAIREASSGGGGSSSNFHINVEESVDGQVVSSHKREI
row,effect of a mutation on the interaction,Variant
1,causing an interaction,L161P

# Variants of: B1
# Details: with kt33b_human KRT33B
row,effect of a mutation on the interaction,Variant
1,causing an interaction,L161P

# Variants of: B1
# Details: with goga2_human GOLGA2, Q08379
# Target sequence in this assay (Q08379 whole entry): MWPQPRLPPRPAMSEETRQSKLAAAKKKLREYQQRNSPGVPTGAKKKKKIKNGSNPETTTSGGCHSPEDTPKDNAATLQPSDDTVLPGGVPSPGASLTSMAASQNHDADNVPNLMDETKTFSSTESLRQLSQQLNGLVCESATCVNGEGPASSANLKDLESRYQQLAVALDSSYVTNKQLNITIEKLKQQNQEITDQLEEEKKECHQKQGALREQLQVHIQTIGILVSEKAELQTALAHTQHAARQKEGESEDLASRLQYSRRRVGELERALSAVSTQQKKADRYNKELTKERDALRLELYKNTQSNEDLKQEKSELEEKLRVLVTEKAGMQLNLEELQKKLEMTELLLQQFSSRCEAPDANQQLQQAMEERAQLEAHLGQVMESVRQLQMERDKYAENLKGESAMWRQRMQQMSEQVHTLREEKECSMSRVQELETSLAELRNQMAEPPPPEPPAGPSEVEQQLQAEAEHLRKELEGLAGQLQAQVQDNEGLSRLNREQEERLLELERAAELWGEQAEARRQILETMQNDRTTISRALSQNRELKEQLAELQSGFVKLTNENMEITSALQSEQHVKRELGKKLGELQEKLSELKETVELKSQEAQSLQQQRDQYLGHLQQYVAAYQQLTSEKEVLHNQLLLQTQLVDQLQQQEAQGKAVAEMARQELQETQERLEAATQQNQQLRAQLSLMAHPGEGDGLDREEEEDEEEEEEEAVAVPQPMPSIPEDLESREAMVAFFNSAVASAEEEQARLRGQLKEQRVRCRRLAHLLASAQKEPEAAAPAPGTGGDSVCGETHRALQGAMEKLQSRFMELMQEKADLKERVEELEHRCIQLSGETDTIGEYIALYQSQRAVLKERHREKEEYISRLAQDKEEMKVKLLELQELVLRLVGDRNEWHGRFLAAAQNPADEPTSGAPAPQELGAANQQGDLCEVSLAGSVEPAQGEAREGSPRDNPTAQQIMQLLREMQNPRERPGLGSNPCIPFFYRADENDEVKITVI
row,effect of a mutation on the interaction,Variant
1,causing an interaction,L161P

# Variants of: B1
# Details: with KRT15, P19012
# Remark: another data set of the same source
# Target sequence in this assay (P19012 whole entry): as the sequence (P19012 whole entry) above
row,effect of a mutation on the interaction,Variant
1,with no effect,L161P

# Variants of: B1
# Details: with kt33b_human KRT33B
# Remark: another data set of the same source
row,effect of a mutation on the interaction,Variant
1,with no effect,L161P

# Variants of: B2
# Details: with ca050_human C1orf50, Q9BV19
# Sequence of ca050_human C1orf50, Q9BV19 (Q9BV19 whole entry): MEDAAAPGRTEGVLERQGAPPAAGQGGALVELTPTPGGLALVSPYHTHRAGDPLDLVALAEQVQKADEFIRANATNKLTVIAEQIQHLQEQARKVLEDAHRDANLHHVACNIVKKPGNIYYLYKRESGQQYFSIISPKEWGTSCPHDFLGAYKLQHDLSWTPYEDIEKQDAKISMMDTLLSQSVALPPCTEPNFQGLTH
row,effect of a mutation on the interaction,Variant
1,with no effect,Y143C
2,with no effect,D86G
3,with no effect,A89V

# Variants of: B2
# Details: with ca050_human C1orf50, Q9BV19
# Remark: another data set of the same source
row,effect of a mutation on the interaction,Variant
1,disrupting interaction strength,D86G

# Variants of: B3
# Details: with cdk6_human CDK6, Q00534
# Sequence of cdk6_human CDK6, Q00534 (Q00534 whole entry): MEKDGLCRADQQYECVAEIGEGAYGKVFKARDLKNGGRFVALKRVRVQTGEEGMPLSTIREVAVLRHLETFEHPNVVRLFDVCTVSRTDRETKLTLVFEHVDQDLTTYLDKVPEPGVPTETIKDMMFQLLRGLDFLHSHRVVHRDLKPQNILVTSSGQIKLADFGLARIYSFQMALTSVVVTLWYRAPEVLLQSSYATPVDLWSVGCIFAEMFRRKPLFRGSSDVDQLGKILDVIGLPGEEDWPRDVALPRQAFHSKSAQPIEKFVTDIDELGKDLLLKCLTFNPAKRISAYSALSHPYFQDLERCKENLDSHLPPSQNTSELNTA
row,effect of a mutation on the interaction,Variant
1,with no effect,V31L

# Variants of: B3
# Details: with TCF12, Q99081-3
# Sequence of TCF12, Q99081-3 (Q99081 other isoform, or with tags, fused parts or gaps): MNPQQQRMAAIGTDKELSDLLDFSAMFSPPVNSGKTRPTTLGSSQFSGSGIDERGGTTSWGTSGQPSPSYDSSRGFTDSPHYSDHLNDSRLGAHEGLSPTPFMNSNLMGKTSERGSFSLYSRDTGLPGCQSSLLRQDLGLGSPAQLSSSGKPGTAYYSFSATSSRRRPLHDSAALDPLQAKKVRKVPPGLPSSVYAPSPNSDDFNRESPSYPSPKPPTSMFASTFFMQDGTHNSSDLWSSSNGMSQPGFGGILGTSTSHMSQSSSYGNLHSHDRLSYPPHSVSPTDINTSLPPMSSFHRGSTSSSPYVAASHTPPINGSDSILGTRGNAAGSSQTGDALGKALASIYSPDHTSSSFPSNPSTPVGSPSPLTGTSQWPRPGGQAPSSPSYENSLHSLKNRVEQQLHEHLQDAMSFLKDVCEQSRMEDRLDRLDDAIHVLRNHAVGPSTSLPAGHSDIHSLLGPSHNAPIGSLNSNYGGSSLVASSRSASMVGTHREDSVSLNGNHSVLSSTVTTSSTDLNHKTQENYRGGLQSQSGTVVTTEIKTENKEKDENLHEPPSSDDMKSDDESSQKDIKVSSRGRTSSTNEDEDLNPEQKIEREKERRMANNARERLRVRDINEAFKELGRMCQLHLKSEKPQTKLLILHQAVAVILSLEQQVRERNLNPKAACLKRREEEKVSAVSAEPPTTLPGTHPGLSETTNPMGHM
row,effect of a mutation on the interaction,Variant
1,disrupting interaction strength,V31L

# Variants of: B3
# Details: with NAGK
row,effect of a mutation on the interaction,Variant
1,disrupting interaction strength,V31L

# Variants of: B3
# Details: with sahh2_human AHCYL1, O43865
row,effect of a mutation on the interaction,Variant
1,disrupting interaction strength,V31L

# Variants of: B3
# Details: with TCF4, P15884-3
row,effect of a mutation on the interaction,Variant
1,disrupting interaction strength,V31L

# Variants of: B4
# Details: with KRT15, P19012
# Target sequence in this assay (P19012 whole entry): as the sequence (P19012 whole entry) above
row,effect of a mutation on the interaction,Variant
1,with no effect,F174V
2,with no effect,I462S
3,with no effect,N171K
4,with no effect,A463P

# Variants of: B4
# Details: with KRT40, Q6A162
# Sequence of KRT40, Q6A162 (Q6A162 whole entry): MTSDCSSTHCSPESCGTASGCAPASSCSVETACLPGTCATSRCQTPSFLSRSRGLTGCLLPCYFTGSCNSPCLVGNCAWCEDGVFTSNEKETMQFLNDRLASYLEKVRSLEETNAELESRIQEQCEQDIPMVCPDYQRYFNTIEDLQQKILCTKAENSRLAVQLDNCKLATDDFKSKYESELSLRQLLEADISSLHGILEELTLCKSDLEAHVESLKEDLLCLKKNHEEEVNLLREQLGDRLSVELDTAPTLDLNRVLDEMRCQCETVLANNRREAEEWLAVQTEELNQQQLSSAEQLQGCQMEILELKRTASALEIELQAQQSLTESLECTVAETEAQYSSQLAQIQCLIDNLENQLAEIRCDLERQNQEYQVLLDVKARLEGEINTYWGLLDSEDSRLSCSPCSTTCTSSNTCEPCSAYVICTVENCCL
row,effect of a mutation on the interaction,Variant
1,with no effect,F174V
2,with no effect,I462S
3,with no effect,N171K
4,with no effect,A463P

# Variants of: B4
# Details: with k1h1_human KRT31, Q15323
# Sequence of k1h1_human KRT31, Q15323 (Q15323 whole entry): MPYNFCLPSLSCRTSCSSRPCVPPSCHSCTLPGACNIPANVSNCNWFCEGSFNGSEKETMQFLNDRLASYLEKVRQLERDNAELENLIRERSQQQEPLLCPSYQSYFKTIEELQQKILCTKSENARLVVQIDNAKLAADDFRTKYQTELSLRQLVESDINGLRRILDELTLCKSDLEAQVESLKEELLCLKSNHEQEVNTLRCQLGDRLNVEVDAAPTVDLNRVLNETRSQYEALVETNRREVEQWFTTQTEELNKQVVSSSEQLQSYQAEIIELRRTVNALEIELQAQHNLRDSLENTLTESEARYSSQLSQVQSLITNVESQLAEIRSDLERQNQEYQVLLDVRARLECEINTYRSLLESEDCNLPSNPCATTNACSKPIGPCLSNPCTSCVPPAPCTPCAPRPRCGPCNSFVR
row,effect of a mutation on the interaction,Variant
1,with no effect,F174V
2,with no effect,I462S
3,with no effect,N171K
4,with no effect,A463P

# Variants of: B4
# Details: with tfp11_human TFIP11, Q9UBB9
# Sequence of tfp11_human TFIP11, Q9UBB9 (Q9UBB9 whole entry): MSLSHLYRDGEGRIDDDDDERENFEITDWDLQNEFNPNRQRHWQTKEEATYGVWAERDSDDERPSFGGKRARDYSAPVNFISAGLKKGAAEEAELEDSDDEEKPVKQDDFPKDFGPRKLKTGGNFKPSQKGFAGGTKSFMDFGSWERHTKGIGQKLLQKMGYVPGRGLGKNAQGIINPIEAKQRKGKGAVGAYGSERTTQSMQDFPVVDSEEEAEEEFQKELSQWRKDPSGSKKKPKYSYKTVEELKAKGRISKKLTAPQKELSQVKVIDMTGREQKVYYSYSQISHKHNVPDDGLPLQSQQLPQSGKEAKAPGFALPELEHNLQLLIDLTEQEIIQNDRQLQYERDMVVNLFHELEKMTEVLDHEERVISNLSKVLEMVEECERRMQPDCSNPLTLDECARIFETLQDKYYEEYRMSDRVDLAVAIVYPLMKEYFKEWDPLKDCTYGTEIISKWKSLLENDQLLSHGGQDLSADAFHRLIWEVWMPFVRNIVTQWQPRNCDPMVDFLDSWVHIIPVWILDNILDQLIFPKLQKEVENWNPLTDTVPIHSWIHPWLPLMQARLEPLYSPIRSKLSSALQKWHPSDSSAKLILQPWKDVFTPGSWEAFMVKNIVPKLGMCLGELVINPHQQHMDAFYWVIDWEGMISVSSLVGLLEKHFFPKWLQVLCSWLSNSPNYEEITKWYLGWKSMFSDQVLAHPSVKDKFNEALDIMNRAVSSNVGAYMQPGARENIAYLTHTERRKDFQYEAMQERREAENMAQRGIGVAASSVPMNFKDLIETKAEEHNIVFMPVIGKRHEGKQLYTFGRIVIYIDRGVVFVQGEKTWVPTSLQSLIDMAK
row,effect of a mutation on the interaction,Variant
1,with no effect,F174V
2,with no effect,I462S
3,with no effect,N171K
4,disrupting interaction strength,A463P

# Variants of: B4
# Details: with goga2_human GOLGA2, Q08379
# Target sequence in this assay (Q08379 whole entry): as the sequence (Q08379 whole entry) above
row,effect of a mutation on the interaction,Variant
1,with no effect,F174V
2,with no effect,I462S
3,disrupting interaction strength,N171K
4,with no effect,A463P
5,with no effect,N21S
6,with no effect,F249L

# Variants of: B4
# Details: with KRT40, Q6A162
# Remark: another data set of the same source
row,effect of a mutation on the interaction,Variant
1,disrupting interaction strength,I462S
2,disrupting interaction strength,A463P
3,with no effect,N21S
4,with no effect,F249L

# Variants of: B4
# Details: with tfp11_human TFIP11, Q9UBB9
# Remark: another data set of the same source
row,effect of a mutation on the interaction,Variant
1,disrupting interaction strength,I462S
2,with no effect,N21S
3,with no effect,F249L

# Variants of: B4
# Details: with KRT15, P19012
# Remark: another data set of the same source
# Target sequence in this assay (P19012 whole entry): as the sequence (P19012 whole entry) above
row,effect of a mutation on the interaction,Variant
1,with no effect,N21S
2,with no effect,F249L

# Variants of: B4
# Details: with k1h1_human KRT31, Q15323
# Remark: another data set of the same source
row,effect of a mutation on the interaction,Variant
1,with no effect,N21S
2,with no effect,F249L

# Variants of: B5
# Details: with ccnd1_human CCND1, P24385
row,effect of a mutation on the interaction,Variant
1,with no effect,R24H

# Variants of: B5
# Details: with ccnd3_human CCND3, P30281
row,effect of a mutation on the interaction,Variant
1,with no effect,R24H

# Variants of: B5
# Details: with ccnd2_human CCND2, P30279
# Sequence of ccnd2_human CCND2, P30279 (P30279 whole entry): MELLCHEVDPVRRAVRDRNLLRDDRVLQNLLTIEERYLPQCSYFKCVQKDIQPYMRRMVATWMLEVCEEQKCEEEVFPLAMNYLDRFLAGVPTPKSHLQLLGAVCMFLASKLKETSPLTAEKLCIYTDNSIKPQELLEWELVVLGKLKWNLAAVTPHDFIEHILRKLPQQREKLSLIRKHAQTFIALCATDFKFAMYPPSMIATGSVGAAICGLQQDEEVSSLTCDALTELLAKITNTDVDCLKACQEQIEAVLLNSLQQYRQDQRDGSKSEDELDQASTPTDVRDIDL
row,effect of a mutation on the interaction,Variant
1,with no effect,R24H

# Variants of: B5
# Details: with cdn2b_human CDKN2B
row,effect of a mutation on the interaction,Variant
1,with no effect,R24H

# Variants of: B5
# Details: with cdn2c_human CDKN2C
row,effect of a mutation on the interaction,Variant
1,disrupting interaction strength,R24H

# Variants of: B5
# Details: with cdn2b_human CDKN2B
# Remark: another data set of the same source
row,effect of a mutation on the interaction,Variant
1,disrupting interaction strength,R24H
